In publication PMC12905440, “Biochemical principles of miRNA targeting in flies” one finds Kd, binding result and binding signal data, which are given here for six molecules.

In series [1] the target is T1, FLAG-Ago1 (RISC) (Drosophila melanogaster, UniProt A1Z9J5 1-950). In words: RNA Bind-n-Seq (filter binding, sequencing, MLE); let-7 guide; 20 mM HEPES-KOH pH 7.9, 100 mM potassium acetate, 3.5 mM magnesium acetate, 0.05% CHAPS, 2 mM DTT, 8% glycerol, 0.05 ug/ul BSA, 0.01 mg/ml yeast tRNA, 100 nM RNA library, 25 C, 2 h. The note with it: protein: recombinant; tags: FLAG; t2-t8 plus t1A.

For series [2], the target named is T1, FLAG-Ago1 (RISC). Nature of the series: RNA Bind-n-Seq (filter binding, sequencing, MLE); miR-11 guide; 20 mM HEPES-KOH pH 7.9, 100 mM potassium acetate, 3.5 mM magnesium acetate, 0.05% CHAPS, 2 mM DTT, 8% glycerol, 0.05 ug/ul BSA, 0.01 mg/ml yeast tRNA, 100 nM RNA library, 25 C, 2 h. The note with it: protein: recombinant; tags: FLAG.
Series [3] has as its target T2, Ago1 (RISC, embryo lysate) (Drosophila w[*]; AGO2[414] embryos, 0-8 …, UniProt A1Z9J5 1-950). Nature of the series: competition; let-7 guide; nearly same affinity as fully complementary; RBNS: 20 mM HEPES-KOH pH 7.9, 100 mM KOAc, 3.5 mM Mg(OAc)2, 0.05% CHAPS, 2 mM DTT, 8% glycerol, BSA, tRNA, 25 C, 2 h; filter binding: 25 mM HEPES-KOH pH 7.9, 110 mM KOAc, 3.5 mM Mg(OAc)2, 2 mM DTT, 25 C; competition: 18 mM HEPES-KOH pH 7.4, 100 mM KOAc, 3 mM Mg(OAc)2, 5 mM DTT, 25 C. The conditions noted are these: protein: native; g2-21 paired, G:U at g4.

For series [4], the target named is T2, Ago1 (RISC, embryo lysate). In words: competition; let-7 guide; reference; RBNS: 20 mM HEPES-KOH pH 7.9, 100 mM KOAc, 3.5 mM Mg(OAc)2, 0.05% CHAPS, 2 mM DTT, 8% glycerol, BSA, tRNA, 25 C, 2 h; filter binding: 25 mM HEPES-KOH pH 7.9, 110 mM KOAc, 3.5 mM Mg(OAc)2, 2 mM DTT, 25 C; competition: 18 mM HEPES-KOH pH 7.4, 100 mM KOAc, 3 mM Mg(OAc)2, 5 mM DTT, 25 C. The conditions noted are these: protein: native; g2-21 paired.

Series [5] has as its target T2, Ago1 (RISC, embryo lysate). Nature of the series: competition; let-7 guide; RBNS: 20 mM HEPES-KOH pH 7.9, 100 mM KOAc, 3.5 mM Mg(OAc)2, 0.05% CHAPS, 2 mM DTT, 8% glycerol, BSA, tRNA, 25 C, 2 h; filter binding: 25 mM HEPES-KOH pH 7.9, 110 mM KOAc, 3.5 mM Mg(OAc)2, 2 mM DTT, 25 C; competition: 18 mM HEPES-KOH pH 7.4, 100 mM KOAc, 3 mM Mg(OAc)2, 5 mM DTT, 25 C. The conditions noted are these: protein: native; g2-21 paired, G:U at g4 and g5.

T2 sequence (A1Z9J5 entry or part of it): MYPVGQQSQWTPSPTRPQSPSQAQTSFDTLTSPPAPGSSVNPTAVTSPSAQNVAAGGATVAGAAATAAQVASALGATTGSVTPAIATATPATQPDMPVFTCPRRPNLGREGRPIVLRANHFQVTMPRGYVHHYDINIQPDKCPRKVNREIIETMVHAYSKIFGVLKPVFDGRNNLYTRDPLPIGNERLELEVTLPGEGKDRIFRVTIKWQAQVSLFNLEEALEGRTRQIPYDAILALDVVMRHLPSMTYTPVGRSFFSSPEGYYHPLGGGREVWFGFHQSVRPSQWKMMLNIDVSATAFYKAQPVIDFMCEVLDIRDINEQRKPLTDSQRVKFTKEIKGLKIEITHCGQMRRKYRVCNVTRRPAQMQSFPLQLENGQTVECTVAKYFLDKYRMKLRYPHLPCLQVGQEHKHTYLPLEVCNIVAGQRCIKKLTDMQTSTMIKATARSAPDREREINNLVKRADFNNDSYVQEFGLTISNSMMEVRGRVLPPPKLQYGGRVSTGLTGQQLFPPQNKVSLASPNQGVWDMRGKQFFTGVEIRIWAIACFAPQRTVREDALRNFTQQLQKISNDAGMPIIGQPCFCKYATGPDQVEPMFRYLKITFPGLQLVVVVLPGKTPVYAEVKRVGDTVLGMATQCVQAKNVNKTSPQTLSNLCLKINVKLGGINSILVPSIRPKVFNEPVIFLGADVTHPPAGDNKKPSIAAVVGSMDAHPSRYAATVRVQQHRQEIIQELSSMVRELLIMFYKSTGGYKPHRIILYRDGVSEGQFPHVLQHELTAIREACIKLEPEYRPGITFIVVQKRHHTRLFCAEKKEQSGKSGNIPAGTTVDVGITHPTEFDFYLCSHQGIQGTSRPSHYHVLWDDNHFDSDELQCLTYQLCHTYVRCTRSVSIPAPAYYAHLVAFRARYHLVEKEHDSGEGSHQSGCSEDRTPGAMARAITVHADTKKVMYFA
T1 sequence (A1Z9J5 entry or part of it): as above

B1: let-7 / 8mer (mixed)
RNA 1: CUACCUCA
RNA 2: UGAGGUAGUAGGUUGUAUAGU
modifications: guide 5' phosphate
As a reminder, the Kd is the concentration at which binding is half-saturated. As for B1, the Kd with FLAG-Ago1 (RISC) [1] is 0.005 ± 0.00169 nM.

B2: miR-11 / 6mer (mixed)
RNA 1: UGUGAU
RNA 2: CAUCACAGUCUGAGUUCUUGC
modifications: guide 5' phosphate
As for B2, the Kd with FLAG-Ago1 (RISC) [2] came out at 0.388 ± 0.0906 nM.

B3: let-7 guide / g2-21 target, G:U at position 4 (dsRNA)
RNA 1: GAUACUAUACAACCUACUACUUCAACCU
RNA 2: UGAGGUAGUAGGUUGUAUAGU
modifications: 2'-O-methyl C and U around a phosphorothioate (CmCpsmU) in target
For B3, the binding result in series [3] is “binds”.

B4: let-7 guide / g2-21 complementary target (dsRNA)
RNA 1: GAUACUAUACAACCUACUACCUCAACCU
RNA 2: UGAGGUAGUAGGUUGUAUAGU
modifications: 2'-O-methyl C and U around a phosphorothioate (CmCpsmU) in target
As to B4, the binding result in series [4] is listed as “binds”.

B5: let-7 guide / g2-21 target, G:U at positions 4-5 (dsRNA)
RNA 1: GAUACUAUACAACCUACUAUUUCAACCU
RNA 2: UGAGGUAGUAGGUUGUAUAGU
modifications: 2'-O-methyl C and U around a phosphorothioate (CmCpsmU) in target
With B5, the binding signal in series [5] stood at 120 fold lower affinity.

B6: miR-11 / 6mer-A1 (mixed)
RNA 1: GUGAUA
RNA 2: CAUCACAGUCUGAGUUCUUGC
modifications: guide 5' phosphate
Consider B6, for which, in the series with FLAG-Ago1 (RISC) [2], the equilibrium dissociation constant (Kd) was determined as 0.404 ± 0.0996 nM.
